Measured values taken from US20230287084A1.

Tests used:
Test in all cases: cell-based or functional assay
BMP-10 = target: T1, BMP-10 (UniProt O95393)
T1 sequence (looked up): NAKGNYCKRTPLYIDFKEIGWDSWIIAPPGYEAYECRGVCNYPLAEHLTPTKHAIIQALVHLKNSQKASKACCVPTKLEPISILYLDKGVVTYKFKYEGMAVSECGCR

BMP-9 = target: T2, BMP-9 (UniProt Q9UK05)
T2 sequence (looked up): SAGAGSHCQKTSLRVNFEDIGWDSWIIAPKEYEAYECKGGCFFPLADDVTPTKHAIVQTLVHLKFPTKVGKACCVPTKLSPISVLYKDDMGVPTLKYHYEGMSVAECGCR

GDF-11 = target: T3, GDF-11 (UniProt O95390)
T3 sequence (looked up): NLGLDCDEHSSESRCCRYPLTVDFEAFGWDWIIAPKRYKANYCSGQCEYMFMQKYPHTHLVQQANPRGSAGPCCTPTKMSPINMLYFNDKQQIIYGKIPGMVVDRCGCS

GDF-8 = target: T4, GDF-8 (UniProt O14793)
T4 sequence (looked up): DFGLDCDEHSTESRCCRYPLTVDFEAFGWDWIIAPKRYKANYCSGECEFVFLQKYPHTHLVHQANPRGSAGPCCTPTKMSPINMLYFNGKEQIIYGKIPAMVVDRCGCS

activin A = target: T5, activin A (UniProt P08476)
T5 sequence (looked up): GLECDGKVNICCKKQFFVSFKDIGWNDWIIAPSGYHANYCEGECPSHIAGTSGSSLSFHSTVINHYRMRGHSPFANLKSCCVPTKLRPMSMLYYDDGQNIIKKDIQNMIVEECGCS

activin B = target: T6, activin B (UniProt P09529)
T6 sequence (looked up): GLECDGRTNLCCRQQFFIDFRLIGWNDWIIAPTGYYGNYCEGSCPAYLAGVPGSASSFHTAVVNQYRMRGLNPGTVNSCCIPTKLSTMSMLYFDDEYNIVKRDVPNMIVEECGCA

Average IC50, BMP-10 neutralization (HepG2 BMP-reporter) (BMP-10) [nM] | Average IC50, BMP-9 neutralization (HepG2 BMP-reporter) (BMP-9) [nM] | Avg IC50, GDF-11 neutralization (HEK293 TGFβ-reporter) (GDF-11) [nM] | Avg IC50, GDF-8 neutralization (HEK293 TGFβ-reporter) (GDF-8) [nM] | Avg IC50, activin A neutralization (HEK293 TGFβ-reporter) (activin A) [nM] | Avg IC50, activin B neutralization (HEK293 TGFβ-reporter) (activin B) [nM] | Substance | further results
3.7 | 248 | 1.6 | 3.1 | 2.7 | 0.95 | P444 (wild type human ActRIIA-ECD-Fc) (Fc fusion) | IC50, BMP-9 neutralization (HepG2 BMP-reporter) (BMP-9): > 100 nM; IC50, GDF-8 neutralization (HEK293 TGFβ-reporter) (GDF-8): 3.06 nM
0.96 | 386 | 0.75 | 1.1 | 0.52 | 0.55 | P701 (hActRIIB - F58K, 14aa linker, IgG1 FcDL) (Fc fusion) | 
 | 58 |  | 0.29 | 0.42 |  | P709 (hActRIIB - F58Q, 39aa linker, IgG1 FcDL) (Fc fusion) | fold increase of inhibition potency relative to P1218 (GDF-8): 2.8 fold; fold increase of inhibition potency relative to P1218 (activin A): 2.6 fold
1.2 | 0.27 | 0.34 | 0.31 | 0.47 | 0.55 | P757 (WT hActRIIB, 14aa linker, IgG1 FcDL) (Fc fusion) | % increase of potency relative to P75 (BMP-10): 67%; % increase of potency relative to P75 (BMP-9): 900%; % increase of potency relative to P75 (GDF-11): 124%; % increase of potency relative to P75 (GDF-8): 116%; % increase of potency relative to P75 (activin A): 389%; % increase of potency relative to P75 (activin B): 155%
22 | 8.7 | 8.6 | 12 | 8.4 | 41 | P761 (hActRIIB - K31Y, 14aa linker, IgG1 FcDL) (Fc fusion) | % increase of potency relative to P124 (BMP-9): 83%; % decrease of potency relative to P124 (GDF-11): 61%; % decrease of potency relative to P124 (GDF-8): 64%; % decrease of potency relative to P124 (activin A): 58%; % decrease of potency relative to P124 (activin B): 88%

Second part, the substance before the results:

Substance | Average IC50, BMP-10 neutralization (HepG2 BMP-reporter) (BMP-10) [nM] | Average IC50, BMP-9 neutralization (HepG2 BMP-reporter) (BMP-9) [nM] | Avg IC50, GDF-11 neutralization (HEK293 TGFβ-reporter) (GDF-11) [nM] | Avg IC50, GDF-8 neutralization (HEK293 TGFβ-reporter) (GDF-8) [nM] | Avg IC50, activin A neutralization (HEK293 TGFβ-reporter) (activin A) [nM] | Avg IC50, activin B neutralization (HEK293 TGFβ-reporter) (activin B) [nM] | further results
P75 (wild type human ActRIIB-ECD-Fc) (Fc fusion) | 2 | 2.7 | 0.76 | 0.67 | 2.3 | 1.4 | 
P694 (hActRIIB - F58Y, 14aa linker, IgG1 FcDL) (Fc fusion) | 1.9 | 1.8 | 0.73 | 0.65 | 0.79 | 1.3 | 
P698 (hActRIIB - F58K, 3aa linker, IgG1 FcDL) (Fc fusion) |  | 657 |  | 2.1 | 4.3 |  | fold lower inhibition potency relative to P444 (BMP-9): 2.6 fold; fold higher inhibition potency relative to P444 (GDF-8): 1.5 fold
P708 (hActRIIB - F58Q, 14aa linker, IgG1 FcDL) (Fc fusion) | 1.4 | 110 | 0.42 | 0.55 | 0.62 | 0.66 | 
P715 (hActRIIB - F58W, 14aa linker, IgG1 FcDL) (Fc fusion) | 2.4 | 60 | 0.9 | 0.83 | 0.9 | 1.4 | 
P718 (hActRIIB - D57E + F58E, 3aa linker, IgG1 FcDL) (Fc fusion) | > 1000 | > 1000 | > 1000 | > 1000 | > 1000 | > 1000 | 
P719 (hActRIIB - Q29Y + F58E, 14aa linker, IgG1 FcDL) (Fc fusion) | 1.7 | > 100 | 0.58 | 0.61 | 0.63 | 2.3 | 
P720 (hActRIIB - D30Q + F58E, 14aa linker, IgG1 FcDL) (Fc fusion) | 2.3 | 914 | 0.54 | 0.77 | 0.97 | 2.7 | 
P758 (hActRIIB - G27D, 14aa linker, IgG1 FcDL) (Fc fusion) | 1.9 | 1.2 | 1.4 |  | 1.1 | 2.4 | 
P759 (hActRIIB - D57E, 14aa linker, IgG1 FcDL) (Fc fusion) | > 1000 | > 1000 | 137 | 397 | 274 | 227 | % increase of potency relative to P120 (GDF-11): 86%; % increase of potency relative to P120 (GDF-8): 60%; % increase of potency relative to P120 (activin A): 73%; % increase of potency relative to P120 (activin B): 77%
P762 (hActRIIB - V75Q, 14aa linker, IgG1 FcDL) (Fc fusion) | > 1000 | > 1000 | 27 | 66 | > 1000 | > 1000 | 
